# Measurements as given in paper PMC9482650, “Quantitative fragmentomics allow affinity mapping of interactomes” (Nature Communications, 2022).
# T1: GRIP1_5, Q9Y3R0
# T1 sequence (Q9Y3R0 568-668, limits assumed, looked up): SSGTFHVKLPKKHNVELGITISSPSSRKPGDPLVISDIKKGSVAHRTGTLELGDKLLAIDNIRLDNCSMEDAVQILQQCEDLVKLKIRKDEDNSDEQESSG
# T2: NHERF3_4, Q5T2W1
# T2 sequence (Q5T2W1 373-468, limits assumed, looked up): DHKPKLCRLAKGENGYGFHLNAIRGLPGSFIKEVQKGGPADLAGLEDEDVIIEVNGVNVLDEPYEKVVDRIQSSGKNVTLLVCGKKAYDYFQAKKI
# T3: LIN7A, O14910
# T3 sequence (O14910 103-200, limits assumed, looked up): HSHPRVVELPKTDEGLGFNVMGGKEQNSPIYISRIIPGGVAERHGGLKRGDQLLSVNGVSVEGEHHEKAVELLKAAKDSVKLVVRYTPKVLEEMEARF
# T4: APBA1_2, Q02410
# T4 sequence (Q02410 742-832, limits assumed, looked up): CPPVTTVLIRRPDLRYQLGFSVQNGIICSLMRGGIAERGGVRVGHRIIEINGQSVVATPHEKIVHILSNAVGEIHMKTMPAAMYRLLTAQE
# T5: PDZRN3_1, Q9UPQ7
# T5 sequence (Q9UPQ7 244-349, limits assumed, looked up): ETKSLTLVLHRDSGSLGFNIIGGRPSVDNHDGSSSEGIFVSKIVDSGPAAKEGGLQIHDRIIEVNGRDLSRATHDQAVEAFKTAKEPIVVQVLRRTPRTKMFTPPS
# T6: DLG3_1, Q92796
# T6 sequence (Q92796 125-227, limits assumed, looked up): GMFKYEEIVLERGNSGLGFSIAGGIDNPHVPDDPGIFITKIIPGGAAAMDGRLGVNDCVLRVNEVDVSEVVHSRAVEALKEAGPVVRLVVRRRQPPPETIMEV
# T7: DFNB31_3, Q9P202
# T7 sequence (Q9P202 811-907, limits assumed, looked up): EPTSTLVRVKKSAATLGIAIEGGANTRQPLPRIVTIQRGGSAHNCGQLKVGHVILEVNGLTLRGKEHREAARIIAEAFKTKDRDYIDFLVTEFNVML
# T8: GRIP1_3, Q9Y3R0
# T8 sequence (Q9Y3R0 247-346, limits assumed, looked up): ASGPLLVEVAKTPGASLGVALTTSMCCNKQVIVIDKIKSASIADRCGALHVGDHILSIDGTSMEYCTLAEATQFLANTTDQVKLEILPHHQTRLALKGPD
# T9: SNTA1, Q13424
# T9 sequence (Q13424 82-180, limits assumed, looked up): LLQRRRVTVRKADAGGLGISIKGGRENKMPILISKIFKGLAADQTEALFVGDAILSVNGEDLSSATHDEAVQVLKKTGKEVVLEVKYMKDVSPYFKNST
# T10: NHERF3_3, Q5T2W1
# T10 sequence (Q5T2W1 238-333, limits assumed, looked up): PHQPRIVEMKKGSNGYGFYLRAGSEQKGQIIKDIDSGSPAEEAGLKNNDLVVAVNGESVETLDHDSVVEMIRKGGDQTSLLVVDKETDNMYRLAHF
# T11: MPP6, Q9NZW5
# T11 sequence (Q9NZW5 125-219, limits assumed, looked up): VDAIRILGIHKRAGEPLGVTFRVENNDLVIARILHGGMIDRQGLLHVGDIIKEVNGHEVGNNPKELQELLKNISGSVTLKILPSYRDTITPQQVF
# T12: GRIP1_2, Q9Y3R0
# T12 sequence (Q9Y3R0 145-248, limits assumed, looked up): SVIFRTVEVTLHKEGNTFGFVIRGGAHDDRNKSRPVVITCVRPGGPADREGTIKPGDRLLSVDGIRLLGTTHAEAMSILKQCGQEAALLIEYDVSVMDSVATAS
# B1: NF2, P35240 (peptide)
# chain: KSRVAFFEEL
# B2: HPV67-E6, A4U7F2 (peptide)
# chain: SRPQRTQTQV
# B3: LRP4, O75096 (peptide)
# chain: ERKLSSESQV
# B4: GRASP, Q7Z6J2 (peptide)
# chain: RSLEEEESQL
# B5: HPV16-E6, P03126 (peptide)
# chain: SSRTRRETQL
# B6: MUC3B, MUC3A, Q02505;Q9H195 (peptide)
# chain: KRPEMTSSSV
# B7: CYSLTR2, Q9NS75 (peptide)
# chain: SVWLRKETRV
# What was measured:
# Experiment in all cases: holdup assay
# Design in all cases: key: below the threshold = too weak to quantify, mostly under pKd 3.1 to 4
# DLG2_2, Q15700 = biological target: DLG2_2, Q15700
# DLG2_2, Q15700, sequence (Q15700 189-283): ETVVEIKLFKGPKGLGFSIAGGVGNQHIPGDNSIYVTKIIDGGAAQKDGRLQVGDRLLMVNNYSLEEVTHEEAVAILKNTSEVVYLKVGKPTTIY
# GRIP1_5, Q9Y3R0 = biological target: T1, GRIP1_5, Q9Y3R0
# NHERF3_4, Q5T2W1 = biological target: T2, NHERF3_4, Q5T2W1
# LIN7A, O14910 = biological target: T3, LIN7A, O14910
# HTRA2, O43464 = biological target: HTRA2, O43464
# HTRA2, O43464, sequence (O43464 355-458): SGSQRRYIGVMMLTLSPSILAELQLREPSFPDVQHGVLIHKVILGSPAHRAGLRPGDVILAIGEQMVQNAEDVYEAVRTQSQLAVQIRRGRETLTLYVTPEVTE
# APBA1_2, Q02410 = biological target: T4, APBA1_2, Q02410
# GOPC, Q9HD26 = biological target: GOPC, Q9HD26
# PARD3_3, Q8TEW0 = biological target: PARD3_3, Q8TEW0
# PARD3_3, Q8TEW0, sequence (Q8TEW0 582-685): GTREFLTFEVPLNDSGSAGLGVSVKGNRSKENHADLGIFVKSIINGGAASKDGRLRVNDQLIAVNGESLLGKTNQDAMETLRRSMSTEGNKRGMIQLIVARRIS
# PDLIM1, O00151 = biological target: PDLIM1, O00151
# PDLIM1, O00151, sequence (O00151 1-87): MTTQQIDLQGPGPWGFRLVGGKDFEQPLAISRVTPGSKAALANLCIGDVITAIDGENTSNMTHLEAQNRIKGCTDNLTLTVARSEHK
# IL16_4, Q14005 = biological target: IL16_4, Q14005
# IL16_4, Q14005, sequence (Q14005 1229-1329): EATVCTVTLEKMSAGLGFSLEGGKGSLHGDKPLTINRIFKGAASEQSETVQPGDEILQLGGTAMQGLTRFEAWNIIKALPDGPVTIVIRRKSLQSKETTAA
# PDZRN3_1, Q9UPQ7 = biological target: T5, PDZRN3_1, Q9UPQ7
# DLG3_1, Q92796 = biological target: T6, DLG3_1, Q92796
# DFNB31_3, Q9P202 = biological target: T7, DFNB31_3, Q9P202; settings: plain residues with an end cap or a label only (N-terminal biotin on a linker: ttds)
# Inadl_8, Q8NI35 = biological target: Inadl_8, Q8NI35
# Inadl_8, Q8NI35, sequence (Q8NI35 1425-1530): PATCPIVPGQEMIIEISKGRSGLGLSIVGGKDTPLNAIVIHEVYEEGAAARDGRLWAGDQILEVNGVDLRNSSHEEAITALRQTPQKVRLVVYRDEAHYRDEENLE
# Inadl_4, Q8NI35 = settings: plain residues with an end cap or a label only (N-terminal biotin on a linker: ttds)
# Inadl_4, Q8NI35, sequence (Q8NI35 547-651): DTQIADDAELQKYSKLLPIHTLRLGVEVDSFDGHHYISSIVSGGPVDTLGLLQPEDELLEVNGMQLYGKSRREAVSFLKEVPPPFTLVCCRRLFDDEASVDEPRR
# GRIP1_3, Q9Y3R0 = biological target: T8, GRIP1_3, Q9Y3R0; settings: plain residues with an end cap or a label only (N-terminal biotin on a linker: ttds)
# SNTA1, Q13424 = biological target: T9, SNTA1, Q13424; settings: plain residues with an end cap or a label only (N-terminal biotin on a linker: ttds)
# MAGI2_6, Q86UL8 = settings: plain residues with an end cap or a label only (N-terminal biotin on a linker: ttds)
# MAGI2_6, Q86UL8, sequence (Q86UL8 1141-1229): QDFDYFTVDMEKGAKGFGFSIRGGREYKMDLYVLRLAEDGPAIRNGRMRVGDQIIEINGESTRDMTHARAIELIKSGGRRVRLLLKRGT
# LNX1_2, Q8TBB1 = settings: plain residues with an end cap or a label only (N-terminal biotin on a linker: ttds)
# LNX1_2, Q8TBB1, sequence (Q8TBB1 371-470): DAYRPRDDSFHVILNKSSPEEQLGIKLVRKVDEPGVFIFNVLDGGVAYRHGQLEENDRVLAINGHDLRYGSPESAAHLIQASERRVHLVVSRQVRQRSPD
# Inadl_1, Q8NI35 = settings: plain residues with an end cap or a label only (N-terminal biotin on a linker: ttds)
# Inadl_1, Q8NI35, sequence (Q8NI35 113-229): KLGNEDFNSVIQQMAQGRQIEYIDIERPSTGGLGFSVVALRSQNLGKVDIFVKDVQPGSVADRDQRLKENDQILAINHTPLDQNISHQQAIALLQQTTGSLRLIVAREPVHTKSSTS
# SCRIB_2, Q14160 = settings: plain residues with an end cap or a label only (N-terminal biotin on a linker: ttds)
# SCRIB_2, Q14160, sequence (Q14160 857-960): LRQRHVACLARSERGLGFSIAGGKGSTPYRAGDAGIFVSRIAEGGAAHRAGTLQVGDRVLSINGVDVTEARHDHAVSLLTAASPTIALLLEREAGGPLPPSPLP
# DLG1_1, Q12959 = settings: plain residues with an end cap or a label only (N-terminal biotin on a linker: ttds)
# NHERF3_3, Q5T2W1 = biological target: T10, NHERF3_3, Q5T2W1; settings: plain residues with an end cap or a label only (N-terminal biotin on a linker: ttds)
# MPP6, Q9NZW5 = biological target: T11, MPP6, Q9NZW5; settings: plain residues with an end cap or a label only (N-terminal biotin on a linker: ttds)
# PDZRN4_1, Q6ZMN7 = settings: plain residues with an end cap or a label only (N-terminal biotin on a linker: ttds)
# PDZRN4_1, Q6ZMN7, sequence (Q6ZMN7 213-318): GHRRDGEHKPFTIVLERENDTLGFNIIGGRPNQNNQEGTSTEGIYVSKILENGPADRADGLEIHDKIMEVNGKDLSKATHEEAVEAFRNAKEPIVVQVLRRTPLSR
# GRIP1_2, Q9Y3R0 = biological target: T12, GRIP1_2, Q9Y3R0; settings: plain residues with an end cap or a label only (N-terminal biotin on a linker: ttds)
# [1] = plain residues with an end cap or a label only (N-terminal biotin on a linker: ado-ado)
# [2] = plain residues with an end cap or a label only (N-terminal biotin on a linker: ttds)
Binder,"pKd (DFNB31_3, Q9P202)","pKd (Inadl_8, Q8NI35; [2])","pKd (Inadl_4, Q8NI35)","pKd (GRIP1_3, Q9Y3R0)","pKd (DLG2_2, Q15700; [2])","pKd (SNTA1, Q13424)","pKd (MAGI2_6, Q86UL8)","pKd (LNX1_2, Q8TBB1)","pKd (Inadl_1, Q8NI35)","pKd (GRIP1_5, Q9Y3R0; [2])","pKd (NHERF3_4, Q5T2W1; [2])","pKd (LIN7A, O14910; [2])","pKd (HTRA2, O43464; [2])","pKd (SCRIB_2, Q14160)","pKd (DLG1_1, Q12959)","pKd (APBA1_2, Q02410; [2])","pKd (PARD3_3, Q8TEW0; [2])","pKd (IL16_4, Q14005; [2])","pKd (PDZRN3_1, Q9UPQ7; [2])","pKd (NHERF3_3, Q5T2W1)",further results
B1,–,–,–,–,–,–,–,–,–,–,–,–,–,–,–,–,–,–,–,–,"pKd (DLG2_2, Q15700; [1]): 3.51; pKd (GRIP1_5, Q9Y3R0; [1]): 3.62; pKd (NHERF3_4, Q5T2W1; [1]): 3.59; pKd (LIN7A, O14910; [1]): 3.51; pKd (HTRA2, O43464; [1]): 3.61; pKd (APBA1_2, Q02410; [1]): 3.75; pKd (GOPC, Q9HD26; [1]): 3.63; pKd (PARD3_3, Q8TEW0; [1]): 3.72; pKd (PDLIM1, O00151; [1]): 3.76; pKd (IL16_4, Q14005; [1]): 3.68; pKd (PDZRN3_1, Q9UPQ7; [1]): 3.54; pKd (DLG3_1, Q92796; [1]): 3.58"
B2,below the threshold,below the threshold,below the threshold,below the threshold,4.81,3.94,below the threshold,below the threshold,below the threshold,below the threshold,below the threshold,below the threshold,below the threshold,3.4,4.52,3.54,below the threshold,below the threshold,3.76,below the threshold,"pKd (GOPC, Q9HD26; [2]): 3.58; pKd (PDLIM1, O00151; [2]): below the threshold; pKd (MPP6, Q9NZW5): below the threshold; pKd (PDZRN4_1, Q6ZMN7): 3.82; pKd (GRIP1_2, Q9Y3R0): below the threshold; pKd (DLG3_1, Q92796; [2]): 3.89"
B3,below the threshold,below the threshold,below the threshold,below the threshold,4.38,3.78,3.51,below the threshold,below the threshold,below the threshold,below the threshold,below the threshold,below the threshold,3.66,3.82,below the threshold,below the threshold,below the threshold,below the threshold,below the threshold,"pKd (GOPC, Q9HD26; [2]): below the threshold; pKd (PDLIM1, O00151; [2]): below the threshold; pKd (MPP6, Q9NZW5): below the threshold; pKd (PDZRN4_1, Q6ZMN7): below the threshold; pKd (GRIP1_2, Q9Y3R0): 3.7; pKd (DLG3_1, Q92796; [2]): 3.81"
B4,3.74,3.71,3.83,below the threshold,below the threshold,below the threshold,below the threshold,3.56,below the threshold,3.87,below the threshold,3.56,3.69,3.87,below the threshold,3.65,4.13,3.54,4.24,below the threshold,"pKd (GOPC, Q9HD26; [2]): 4.01; pKd (PDLIM1, O00151; [2]): 3.85; pKd (MPP6, Q9NZW5): 3.53; pKd (PDZRN4_1, Q6ZMN7): 4.17; pKd (GRIP1_2, Q9Y3R0): below the threshold; pKd (DLG3_1, Q92796; [2]): 3.6"
B5,below the threshold,below the threshold,below the threshold,below the threshold,4.93,4.75,3.61,3.47,below the threshold,below the threshold,3.89,below the threshold,below the threshold,4.21,4.67,below the threshold,3.65,below the threshold,5.66,3.72,"pKd (MPP6, Q9NZW5): 3.58; pKd (PDZRN4_1, Q6ZMN7): 5.25; pKd (GRIP1_2, Q9Y3R0): below the threshold; pKd (DLG3_1, Q92796; [2]): 3.96"
B6,–,–,–,–,–,–,–,–,–,–,–,–,–,–,–,–,–,–,–,–,"pKd (Inadl_8, Q8NI35; [1]): 4.63; pKd (NHERF3_4, Q5T2W1; [1]): below the threshold; pKd (GOPC, Q9HD26; [1]): 3.96; pKd (PDZRN3_1, Q9UPQ7; [1]): below the threshold; pKd (DLG3_1, Q92796; [1]): below the threshold"
B7,below the threshold,4.55,below the threshold,below the threshold,5.24,5.41,3.51,3.4,below the threshold,below the threshold,3.48,4.17,3.5,4.42,5.14,3.84,3.46,below the threshold,5.1,3.52,"pKd (GOPC, Q9HD26; [2]): 4.27; pKd (PDLIM1, O00151; [2]): below the threshold; pKd (MPP6, Q9NZW5): below the threshold; pKd (PDZRN4_1, Q6ZMN7): 4.76; pKd (GRIP1_2, Q9Y3R0): below the threshold; pKd (DLG3_1, Q92796; [2]): 4.41"
